Assay results as given in the supplement of paper PMC10126150.
± gives the standard deviation of the averaged measurements.

test system: ATP; assay: switch fluorescence ratio, 500 uM ATP over buffer (Cy3 cluster intensity, sum of 5 cycles each) (fold (ratio)); higher = stronger signal-on switching upon ATP binding; sequences stand for … in TCGTCGGCAGCGTCAGATGTGTATAAGAGACAGTTTTTTTTTTTTTTTTTTTTTTTTT…TC; settings: aptamer strand: ATP DNA aptamer (quencher-CACCTGGGGGAGTATTGCGGAGGAAGG + anchor), 100 nM annealed; ATP concentration: 500 uM
Summary of the method: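 Per cluster, summed Cy3 intensity from the target cycles was divided by that from the buffer cycles to give the fluorescence ratio, then averaged per switch-domain sequence. Clusters outside 100-1000 RFU were excluded. The Cy3-labelled switching-strand clusters, on a modified Illumina MiSeq flow-cell, were annealed to 100 nM quencher-labelled ATP aptamer and imaged in selection buffer, then after 15 min with 500 uM ATP at 22 °C, for five cycles with NaOH stripping and re-annealing between them.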
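Note: ATP exposure 15 min at 22 °C before imaging.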

In order of rising switch fluorescence ratio:
1. AGCTGGGGTA  0.951 ± 0.029
2. GTCGGGGAAG  0.958 ± 0.013
3. CTGGGTTGCG  0.958 ± 0.032
4. AAGTAGTGGG  0.96 ± 0.028
5. GCGAGAGCTA  0.9602 ± 0.0021
6. TTCGATTCGA  0.961 ± 0.011
7. TGCCGGGGCT  0.967 ± 0.037
8. TATTTCTTGG  0.968 ± 0.014
9. GGGGAAGAAG  0.969 ± 0.02
10. TGGGATTAGG  0.969 ± 0.03
11. GCACCAAAAG  0.973 ± 0.028
12. TCTGCTTCAG  0.973 ± 0.022
13. TGTCTATCGG  0.974 ± 0.014
14. TGATACCTGT  0.975 ± 0.068
15. GATGTTGATG  0.976 ± 0.014
16. TTAGAAAGAA  0.976 ± 0.013
17. CGGTTACGGA  0.977 ± 0.035
18. AGTGAGCTGA  0.9769 ± 0.0069
19. CAGCTTGGAT  0.977 ± 0.013
20. TTTTGGTTGA  0.977 ± 0.025
21. GTATTGATTT  0.9769 ± 0.0055
22. TGGCGATTTT  0.978 ± 0.048
23. TACGAGGTTT  0.978 ± 0.03
24. GTTTCTTAGA  0.978 ± 0.036
25. TTAAATGGTT  0.9783 ± 0.0076
26. TTCGGATAGT  0.98 ± 0.011
27. TGACGCCGGG  0.98 ± 0.018
28. CTTAAAGTCG  0.981 ± 0.0073
29. TAGTTTTCGT  0.9817 ± 0.0012
30. GCCGCTGATG  0.982 ± 0.028
31. CTGGTGTGGC  0.982 ± 0.028
32. GTTATTGTTT  0.983 ± 0.041
33. CGTCGTAGGG  0.985 ± 0.03
34. ATTAGTTTGA  0.985 ± 0.014
35. AGGCGTAAAA  0.985 ± 0.019
36. CGAACTGAGG  0.985 ± 0.014
37. GGGTATGTAG  0.986 ± 0.024
38. CAGGTATAGG  0.9864 ± 0.0054
39. TCGATGTTGT  0.987 ± 0.03
40. TTCTTTTGGG  0.987 ± 0.039
41. AAGGGGGAGC  0.988 ± 0.042
42. CGGTGCCAAG  0.988 ± 0.042
43. TGAAAAGAGG  0.988 ± 0.021
44. CGGCGTTATG  0.988 ± 0.014
45. GGGCACGTCG  0.9888 ± 0.0094
46. TTGCATCGGG  0.9891 ± 0.0034
47. GTGCTTCTTT  0.99 ± 0.011
48. CAAATGTCAG  0.99 ± 0.028
49. GACCATTGTC  0.99 ± 0.063
50. CCATTTTCAT  0.99 ± 0.041
51. GGTAAAGGGG  0.991 ± 0.058
52. AGGTCGTGTT  0.992 ± 0.01
53. ACTTTGCGTT  0.992 ± 0.011
54. GGTTTTGTAT  0.993 ± 0.024
55. GCTTTTGCCG  0.993 ± 0.036
56. CGTGTGGGTT  0.993 ± 0.011
57. GGCTTTTTTT  0.994 ± 0.029
58. AAAAAAGAAT  0.9938 ± 0.0096
59. GACTTGTGTA  0.994 ± 0.016
60. GGCGTGGCGG  0.994 ± 0.019
61. TTTGCCGCGG  0.995 ± 0.023
62. CGGGAAAACG  0.995 ± 0.012
63. ATCTATATAG  0.9945 ± 0.0068
64. GGGATTGGTG  0.995 ± 0.026
65. AGGGTTGGGA  0.9962 ± 0.0068
66. AGGGTCTACG  0.997 ± 0.044
67. GTAATGAGCG  0.998 ± 0.044
68. TGGCTTTTTT  0.998 ± 0.027
69. TTTGCATCTT  0.9984 ± 0.0022
70. GGCTATTTTG  0.999 ± 0.073
71. AGAAGGGCTT  1 ± 0.026
72. TAAGGGAATT  1 ± 0.036
73. TTATGGGTTT  1 ± 0.036
74. GATTTAATGG  1 ± 0.021
75. TGAATATAGT  1.004 ± 0.0042
76. TGTACTGGGG  1.003 ± 0.0094
77. AATTATCGAC  1 ± 0.031
78. ACTGGGTAAA  1.002 ± 0.0086
79. GGTTTACGTC  0.9998 ± 0.0082
80. TTAGTCTGGG  1 ± 0.039
81. TCGTTATGTC  1 ± 0.032
82. TAGCATCTGT  1 ± 0.03
83. CGTTTAGCGT  1 ± 0.0018
84. AGAAGGGTTG  1 ± 0.023
85. GGTCTATCGT  1 ± 0.039
86. TTTTTGTGTT  1 ± 0.025
87. TCCCGGTCCG  1 ± 0.027
88. GTGGCATGGG  1 ± 0.014
89. TGGCGGACGT  1 ± 0.0081
90. GGGTATATGT  1 ± 0.014
91. AGAGGGGCGG  1 ± 0.016
92. GCTGGGTCTG  1 ± 0.017
93. AGTGTTCGGG  1 ± 0.043
94. AGTCTGCTCG  1 ± 0.018
95. GGTATTATGG  1 ± 0.029
96. TTTTCAATCG  1.01 ± 0.045
97. GAGTCACGGA  1.01 ± 0.046
98. AGTAGGCAGC  1.01 ± 0.033
99. ATCGTACGGC  1.01 ± 0.026
100. AAAATTTAAC  1.01 ± 0.023
101. ATTAGACTTG  1.01 ± 0.065
102. TTCTACCAGC  1.01 ± 0.011
103. AATGAAAGCG  1.01 ± 0.015
104. AGAATTTATT  1.01 ± 0.039
105. TAATGTGGCC  1.01 ± 0.039
106. CCTTTTTTTT  1.01 ± 0.011
107. ACTAATGGCT  1.01 ± 0.02
108. TTTGTTTTGT  1.01 ± 0.051
109. ACAGATGAGC  1.01 ± 0.056
110. ATAATGACGT  1.01 ± 0.049
111. GGGTTTGGCT  1.01 ± 0.029
112. ATGGAATCAG  1.015 ± 0.01
113. GGGGATTATA  1.01 ± 0.015
114. GGTAGGAACC  1.01 ± 0.021
115. GCAGATTACG  1.01 ± 0.058
116. AGCGTTGTG  1.01 ± 0.044
117. TTGGGGTGGG  1.01 ± 0.046
118. GGGGGGTCTT  1.01 ± 0.025
119. AAATGCTATA  1.01 ± 0.022
120. GCATTGATGT  1.02 ± 0.017
121. AATGAGTACG  1.02 ± 0.059
122. ATTGGTGACG  1.02 ± 0.047
123. TATTGAGTAA  1.02 ± 0.02
124. GATGGGGCTG  1.02 ± 0.062
125. CTAGTTAGCT  1.015 ± 0.0097
126. ATTGAAATGG  1.02 ± 0.044
127. AGGTTCGATC  1.02 ± 0.043
128. AATTATTCGT  1.024 ± 0.01
129. GCCACGGCGA  1.02 ± 0.021
130. GTATTAAGGG  1.02 ± 0.035
131. TGGGGGGCTA  1.02 ± 0.056
132. CATTTGTTTT  1.02 ± 0.021
133. CGTGTTGGAC  1.016 ± 0.0032
134. ATTTACGAT  1.02 ± 0.049
135. GACTATGAGG  1.02 ± 0.095
136. TATTGACGGT  1.02 ± 0.022
137. TAATGTTGGT  1.025 ± 0.0014
138. TTTAAAGAAA  1.02 ± 0.016
139. CGGGTAGCTT  1.017 ± 0.0093
140. AGGGTTTTAC  1.017 ± 0.0013
141. GGTGGGGAAC  1.03 ± 0.068
142. GGTATCTCGA  1.03 ± 0.044
143. ATCATACGGA  1.034 ± 0.0088
144. AGGGGGGTGT  1.03 ± 0.028
145. ACATGCCGGG  1.03 ± 0.085
146. TTAAGGGATA  1.03 ± 0.082
147. GGGGCAGCCA  1.03 ± 0.038
148. GGAGTACAAA  1.03 ± 0.033
149. TTCACGTTTT  1.03 ± 0.087
150. GGTTATACGA  1.034 ± 0.0054
151. GGGGATCCCC  1.03 ± 0.019
152. TTGTAGTTAC  1.034 ± 0.0049
153. TGTAAGCTGG  1.03 ± 0.073
154. CCTTTTTTAT  1.03 ± 0.085
155. AGCGATTTAT  1.03 ± 0.0079
156. CCAAGGCTTT  1.03 ± 0.026
157. TACGGGTAAT  1.04 ± 0.019
158. TATAAAAGAA  1.04 ± 0.053
159. TTCGGGTTTC  1.04 ± 0.058
160. TCAGCATGGT  1.04 ± 0.091
161. GATCGTACAG  1.04 ± 0.018
162. CACTATAGCG  1.042 ± 0.0098
163. TAAGTGACGG  1.04 ± 0.036
164. AATCCGTTTT  1.04 ± 0.044
165. CGGAAGCTCT  1.036 ± 0.0028
166. CGCGAAGGCT  1.04 ± 0.015
167. GTTTACCTTC  1.04 ± 0.062
168. CATCGGGACG  1.04 ± 0.053
169. GATCCGGCTT  1.04 ± 0.035
170. CGGCCCACGC  1.04 ± 0.082
171. ACCTGGTCGT  1.05 ± 0.048
172. TGAAGTAGGG  1.05 ± 0.12
173. AAGTATCGAC  1.05 ± 0.023
174. ACTTATGGCT  1.05 ± 0.022
175. TAGGTGTTTT  1.05 ± 0.047
176. TTCAATGTCG  1.05 ± 0.024
177. AGCGTTAGTG  1.06 ± 0.013
178. AAGTTACTAC  1.06 ± 0.027
179. GCGTTTGCCC  1.06 ± 0.072
180. AAAAAACGTG  1.06 ± 0.091
181. AAGCGGGGTG  1.06 ± 0.063
182. GATCTACGGC  1.07 ± 0.024
183. CACACAGTAT  1.0721 ± 0.00011
184. CAGCGTCCCT  1.07 ± 0.014
185. ACGCCGGGCT  1.07 ± 0.054
186. ATAGTACAGG  1.08 ± 0.011
187. GTAAACGGTA  1.08 ± 0.064
188. CGGTTGATCT  1.09 ± 0.13
189. TGGGGCAATT  1.1 ± 0.06
190. CCATCAAGTG  1.108 ± 0.0049
191. CCTGGGGCTG  1.12 ± 0.14
192. AATGAGCGTT  1.14 ± 0.16
193. GAGGAAGCGA  1.18 ± 0.059
194. TTTGAACTGT  1.18 ± 0.14
195. AAAGGGAAAC  1.2 ± 0.28
196. TACGATAGGG  1.21 ± 0.16
197. GCCGCTGGTG  1.22 ± 0.077
198. CATCGAATGC  1.23 ± 0.12
199. CGGATCCAGG  1.35 ± 0.042
200. GAGGCAAAG  2.87 ± 2.4
